Experimental data reported in article PMC6702222, “Visualizing structural transitions of ligand-dependent gating of the TRPM2 channel” (Nature Communications, 2019).

Target: the molecule itself
Assay: cryo-EM structure; TRPM2DR in digitonin, Ca2+-free buffer, incubated with 1 mM EDTA (ligand-free); refined with C4 (~4.3 A) and C2 (~4.5 A) symmetry

B1: Danio rerio (zebrafish) transient receptor potential melastatin 2 channel, full-length wild type (natural protein, UniProt A0A0R4IMY7 1-1470, looked up)
chain: MDEAALEPTLVQTLAVSTAKGGRYLSLSPSFQRCSLASWIKENIKKKECCFYVEDGREGICKCGYPKVQHCDEAIKPEDYMGEQWDKHRHVRETPTDAFGDISFGGLGQKTGKYVRVSSDTSCENLYQLMTEQWKLRSPNLLISVTGGAKNFYIKTHLKDKFRRGLIKVAQTTGAWILTGGTHAGVMKHVGMAVRDYTLSSGSMEGQIVVIGVAPWGVIHNRSTLIHPEGRFPAYYSLDEQGQGRLSCLDINHTHFLLVDDGTQGHYGVEIELRARLEKLISKLSLGNRESGVTIPVVCVVLDGGPGTLNTIYNSMLNHTPCVVLEGSGRLADVIAHVASVPVSKVTMALINRLLKRFFMQEYKNFTELQIIEWTKKIQDILRMPHLLTVFRIDEDKNYDVDVAILQALLKASRSDEHAGRHCWERQLELAVAWNRVDIAESEIFTEESQWTSSDLHPAMFSALVGDKPEFVRLLLENGVCVREFLEREETLCELYSHLPSCFFLRKLAKRVQGGKMRRGQEPLPGSRKVCLSHVSEEVRHLLGSFTQPLYIASRYKPTKDDVRLKVPSKGALDLPCSGEEWSADTVWDPGRDLFLWAVVQNNRELAEIGWEQCRDCIAAALAASKILRKLAQESGEDDSEEATEMLELANHYEKQAIGVFSECHSWDAQRAQKLLIRISPSWGRSTCLWLALEAHDKSFIAHSGVQALLTQIWCGELSVDNPHWKVLLCMIFFPLIYTGFLTFRRDEDIQRQAERTEQQKLAMESVFAGQSDGKIKRHLRGFSQKSELKPLNCSSRLMSFLKSPQVKFYWNIASYFGFLWLFAVVLMIDFQTSPSWRELLLYVWLTSLVCEEIRQLYHDFDGSGFRRKAKMYIKDLWNILDVLSIVLFIAGLICRLQASDTVFYIGKVILCIDFIIFCLRLMAIFSISRTLGPKIIIVRRMMLDLFFFMFLLSIWVVAYGVAKQGILIENEERLNWIIRGAVYEPYITIFGNFPTNIDNTLFDISSCSVNASDPLKPKCPMLNADNTPVFPEWLTIMMLCVYLLFANILLLNLLIAIFNYTFQEVQDNTDTIWKFQRYELIKEYHSRPALPPPFILLSHLILFIRGVFLRDLPQRHKNFRQELEQTEEEELLSWEAYMKDNYLASTRQDESQSVEHRIHDTAEKVGAMSELLEREQEMVSATMAKRLARLEEQVSESAKALRWIIDALKSQGCKSKVQPPLMRSKSSDRDDGDSSGQETDDEEAPHMFARQLQYPDSTVRRFPVPEEKVSWEVNFSPYQPPVYNQQDSSESDTSALDKHRNPGGRTGIRGKGALNTLGPNHILHPIFTRWRDAEHKVLEFLAVWEDAEKRWALLGGPAQPDEPLAQVLERILGKKLNEKTKTLLKAGEEVYKGYVDDSRNTDNAWVETSIITLHCDKNTPLMADLNHMVESSLSSHQPLQWREVSSDACRCSYQREALRQIAHHHNTYF
notes: TRPM2, zebrafish (Danio rerio), NCBI XP_009303266.1, full-length wild type from a codon-optimized synthetic gene; Homo-tetramer in all cryo-EM reconstructions; also called TRPM2DR; TRPM2; source: for the ADPR/Ca2+ sample reconstituted into amphipol PMAL-C8
  stoichiometry N: 4
